Laboratory results taken from the nanobody polyreactivity screen of Harvey et al. (2022).

Assay: yeast display, Sf9 membrane polyspecificity reagent, FACS + sequencing; frameworks hold sequencing errors
How it was run: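 A synthetic nanobody library was expressed on Saccharomyces cerevisiae BJ5465 by galactose induction for 36–48 hours. The library was stained for 1 hour at 4 °C with 10% biotinylated, detergent-solubilized Sf9 membrane reagent and enriched with streptavidin microbeads before FACS. Low and high (top ~1%) gates were set on anti-HA fluorescence for expression and streptavidin fluorescence for reagent binding, and each polyreactivity label reflects the gate of origin.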

| Sequence | polyreactivity (PSR sort gate) |
| --- | --- |
| QVQLVESGGGLVQAGGSLRLSCAASGRTFVTNAMGWYRQAPGKETELVAAISGTGGSTYYADSVKGRFTISRDNAKNTVYLQMNSLKPEDTAVYYCAAQKWRRGRYRDTAGPLFAYDYWGQGTQVTVSS | low polyreactivity |
| QVQLVESGGGLVQAGGSLRLSCAASGRTFVTYTMGWYRPAPGKERELVAAISRDGRTYYADSVKGRFTISRDNAKNTVYLQMNSLKPEDTAVYYCATRYKSPSFDYWGQGTQVTVSS | high polyreactivity |
| QVQLVESGGGLVQAGGSLRLSCAASGRTFVVYAMGWYRQAPGKERELVAAITSSGNTYYADSVKGRFTISRDNAKNTVYLQMNSLKPEDTAVYYCAAYSLYGYDYWGQGTQVTVSS | low polyreactivity |
| QVQLVESGGGLVQAGGSLRLSCAASGRTFVWNAMGWYRQAPGKERELVAAISSSGGSTYYADSVKGRFTISRDNAKNTVYLQMNSLKPEDTAVYYCAARRASGFDWGQGTQVTVSS | high polyreactivity |
| QVQLVESGGGLVQAGGSLRLSCAASGRTFVWNAMGWYRQAPGTERELVAAITSGGSTNYADSVKGRFTISRDNAKNTVYLQMNSLIPEDTAVYYCGAVWQYSPRMDYWGQGTQVTVSS | low polyreactivity |
| QVQLVESGGGLVQAGGSLRLSCAASGRTFVWYVMGWYRQAPGKERELVAAISLRGGTTYYADSVKGRFTISRDNAKNTVYLQMNSLKPEDTAVYYCAIAGIRHVTSKFKGYHFGYWGQGTQVTVSS | low polyreactivity |
| QVQLVESGGGLVQAGGSLRLSCAASGRTFVYKAMGWYRQSPGKERELVAALDGGGDRTYYADSVKGRFTISRDNAKNTVYLQMNSLKPEDTAVYYCARDPGDTYYYSYPEGDYWGEGTQVTVSS | low polyreactivity |
| QVQLVESGGGLVQAGGSLRLSCAASGRTFVYYAMGWYRQAPGKEREFVATITSSGGSTYYADSVKGRFTISRDNAKNTVYLQMNSLKPEDTAVYYCAASPYIRYSKVSKYYYWGQGTQVTVSS | high polyreactivity |
| QVQLVESGGGLVQAGGSLRLSCAASGRTFVYYAMGWYRQAPGKERELVASISSVGTTKYADSVKGRFTISRDNAKNTVYLQMNSLKPEDTAVYYCAAVPLSRNIFDSWGQGTQVTVSS | low polyreactivity |
| QVQLVESGGGLVQAGGSLRLSCAASGRTFWAYAMGWYRQAPGKERELVAAISVSGGRTYYADSVKGRFTISRDNAKYTVYLQMNSLKPEDSAVYYCNKRYLKSYQYYWGQGSQVTVSS | high polyreactivity |
| QVQLVESGGGLVQAGGSLRLSCAASGRTFWAYAMGWYRQAPGKERELVAVIRGSGNTYYADSVKGRFTISRDNAKNTVYLQMNSLKPEDTAVYYCAASRAVTQYSGGGYWGQGTQVTVSS | high polyreactivity |
| QVQLVESGGGLVQAGGSLRLSCAASGRTFWDYGMGWYRQAPGKERELVATISGNGGDTYYADSVKGRFTISRDNAKNTVYLQMNSLKPEDTAVYYCAADYRFYRTDRHYDYWGQGSQVTVSS | low polyreactivity |
| QVQLVESGGGLVQAGGSLRLSCAASGRTFWENAMGWYRQAPGKERELVAAISGDSGSTYYADSVKGRFTISRDNAKNTVYLQMNSLKPEDTAVYYCAADSDRDDSYPYYYWGQGTQVTVSS | low polyreactivity |
| QVQLVESGGGLVQAGGSLRLSCAASGRTFWGNAMGWYRQAPGKERELVAAIRRGGRTNYADSVKGRFTISRDNAKNTVYLQMNSLKPEDTAVYYCNALYAWSWPRGYDYWGQGTQVTVSS | high polyreactivity |
| QVQLVESGGGLVQAGGSLRLSCAASGRTFWGYGMGWYRQAPGKERELVATISSGGSTYYADSVKGRFTISRDNAKNTVYLQMNSLKPEDTAVYYCAARPPRTYWRYQSDYWGQGTQLTVSS | high polyreactivity |
| QVQLVESGGGLVQAGGSLRLSCAASGRTFWGYPMGWYRQAPGKERELVAAISSGGSTHYADSVKGRFTISRDNAKNTVYLQMNSLKPEDTAVYYCAAAVGYYAFGTYPFDDWPYDYWGQGTQVTVSS | high polyreactivity |
| QVQLVESGGGLVQAGGSLRLSCAASGRTFWKYAMGWSRQAPGKERELVAAITDDDSTDYADSVKGRFTISRDNAKNTVYLQMTRLKPEDTAVYYCNADSSRYYRALEYWGQGTQVTVSA | low polyreactivity |
| QVQLVESGGGLVQAGGSLRLSCAASGRTFWNYAMGWYRQAPGKERELVAVIRFSDGSTYYADSVKGRFTISRDNAKNTVYLQMNSLKPEDTAVYYCAAKGPRRWGSGFDYWGQATQVTVSS | low polyreactivity |
| QVQLVESGGGLVQAGGSLRLSCAASGRTFWNYSMGWYRQAPGKERELVAVIRFSDGSTYYADSVKGRFTISRDNAKNTVYLQMNSLKPEDTAVYYCAADYSLYGWWFRNDYWGQGTQVTVSS | low polyreactivity |
| QVQLVESGGGLVQAGGSLRLSCAASGRTFWPYAMGWYRQAPGKERELVAAINWGGGSTYYADSVKGRFTISRDNAKNTVYLQMNSLKPEDTAVYYCAADVGRNKMDYWGQGTQVTVSS | low polyreactivity |
| QVQLVESGGGLVQAGGSLRLSCAASGRTFWPYAMGWYRQAPGKERELVARITASGGRTYYADSVKWRFTISRDNAKNTVYLQMNSLKPEDTAVYYCATSYSTRIWTWRAGDYWGQGSQVTVSS | high polyreactivity |
| QVQLVESGGGLVQAGGSLRLSCAASGRTFWRNAMGWYRQAPGKERELVAAISSSGDRTYYADSVKGRFTISRDNANNTVYLQMNSLKPEDTAVYYCAADVRYSSRFYYWGQGTQVTVSS | high polyreactivity |

| Sequence | polyreactivity (PSR sort gate) |
| --- | --- |
| QVQLVESGGGLVQAGGSLRLSCAASGRTFWRNAMGWYRQAPGKERELVAVISVRGSSTSYADSVKGRFTISRDNAKNTVYLQMNSLKPEDTAVYYCNKASRTYGTGYDYWGQGTQVTVSS | high polyreactivity |
| QVQLVESGGGLVQAGGSLRLSCAASGRTFWSNAMGSYRQAPGKERELVAAINTSGGNTYYADSVKGRFTISRDNAKNTVYLQMNSLKPEDTAVYFCNTDGLVRNGPFYSWGQGTQVTVSS | low polyreactivity |
| QVQLVESGGGLVQAGGSLRLSCAASGRTFWSNDMGWYRQAPGKEREFVAVISRSGSTTYYADSVKGRFTISRDNAKNTVYLQMNSRKPEDTAVYYCAADRVRSYFSRYYSTPLDYYLGQGTQVTVSS | high polyreactivity |
| QVQLVESGGGLVQAGGSLRLSCAASGRTFWSYAMGWYRQAPGKERELVAAIRTSDGITYYADSVKGRFTISRDNAKNTVYLQMNSLKPEDTAVYYCARDIRQYILYGRGDYWGQGTQVTVSS | low polyreactivity |
| QVQLVESGGGLVQAGGSLRLSCAASGRTFWTNAMGWYRQAPGKERELVAAIDRSSTSTYYADSVKGRFTISRDNAKNTVYLQMNSLKPEDTAVYYCAAENPVIVETPYGGFVGKGDSWGQGTQVTVSS | low polyreactivity |
| QVQLVESGGGLVQAGGSLRLSCAASGRTFWTYTMGWYRQAPGKERELVAAISYSGSRTYYADSVKGRFTISRDNAKNTVYLQMNSQKPEETAVYYWATDDSDYLYRTVSAWEYDYWGQGTQVTVSS | low polyreactivity |
| QVQLVESGGGLVQAGGSLRLSCAASGRTFWYNAMGWYRQAPRKERELVAAISSGSSTKYADSVKGRFTISRDNAKNTVYLQMNSLKPEDTAVYYCARGGWAYCPRYNYWGQGTQVTVSS | high polyreactivity |
| QVQLVESGGGLVQAGGSLRLSCAASGRTFWYSAMGWYRQAPGKEREFVAAISWSGGSTYYADSVKGRFTISRDNAKNTVYLQMNSLKPEDTAVYYCAADRYDSSQFYYWGQGTQVTVSS | low polyreactivity |
| QVQLVESGGGLVQAGGSLRLSCAASGRTFWYYAMGWSRQAPGKERELVATITSGGSTYYADSVKGRFTISRDNAKNTVYLQMNSLKPEDTAVYYCAARKYYSRAYDYWGQGTQVTVSS | high polyreactivity |
| QVQLVESGGGLVQAGGSLRLSCAASGRTFWYYAMGWYRQAPGKEREFVAAISWSGGSTYYADSVKGRFTISRDNAKNTVYLQMNSLKPEDTAVYYCAADGYDSSQFYYWGQGTQVTVSS | low polyreactivity |
| QVQLVESGGGLVQAGGSLRLSCAASGRTFWYYAMGWYRQAPGTERELVAAITYRGTRTYADSVKGRFTISRDNAKNTVYLQMNSQKPEDTPVYYCAKDVGYRYSGTMDYWGQGTQVTVSS | high polyreactivity |
| QVQLVESGGGLVQAGGSLRLSCAASGRTFWYYAMGWYRQSPGKERELVAVITSGSSTYYADSVKGRFTISRDNAKNTVYLQMNSLKPEDTAVYYCNKLGRIQYDYWGQGTQVTVSS | high polyreactivity |
| QVQLVESGGGLVQAGGSLRLSCAASGRTFWYYTMGWYRQAPGKERELVAAISSGGTTNYADSVKGRFTISRDNAKNTVYLQMNSLKPEDTAVYYCAARYRSYAVRLRGYDYWGQGTQVTVSS | high polyreactivity |
| QVQLVESGGGLVQAGGSLRLSCAASGRTFYANAMGWYRHAPGKERELVASITGSGGRTYYADSVKGRFTISRDNAKNTVYLLMNSLKPEDTAVYYCNADPGWVYRDYEPNGLDYWGQGTQVTVSS | low polyreactivity |
| QVQLVESGGGLVQAGGSLRLSCAASGRTFYDNAMGWDRQAPGKARELVAAITQSGGRTYYADSVKGRFTISRDNAKNTGYLQMNSLKPADTAVYYCAASWPNYLYEYWGQGTQVTVSS | high polyreactivity |
| QVQLVESGGGLVQAGGSLRLSCAASGRTFYDNAMGWYRQAPGNERELVAAITVRGGSTRYADSVKGRFTISRDNAKNTVYLQLNSLKPEDTAVYYCAATQTPYRYHYDYWGQGTQVTVSS | high polyreactivity |
| QVQLVESGGGLVQAGGSLRLSCAASGRTFYDYAMGWYRQAHGKERELVAAIRLSGASTYYADSVKGRFTISRDNAKNTVYLQMNSLKPEDTAVYYCAARYGGRVAYRGYSYYYWGQGTQVTVSS | high polyreactivity |
| QVQLVESGGGLVQAGGSLRLSCAASGRTFYDYAMGWYRQAPGKEREFVARITYSGGGTYYADSVKGRFTISRDNAKHTVYLQMNSLKPEDTAVYYCARPFNRYLGLTRNGYTSDYWGQGTQVTVSS | high polyreactivity |
| QVQLVESGGGLVQAGGSLRLSCAASGRTFYDYAMGWYRQAPGKERELVAASSRRAGSTYYADSVKGRFTISRDNAKNTVFLEMNSLKPEDTSVYYCAAAYYRRWWRGHHYAFDYWGQGSQVTVSS | high polyreactivity |
| QVQLVESGGGLVQAGGSLRLSCAASGRTFYDYAMGWYRQAPGKERELVADITSGGGNTYYADSVKGRFTISRDNAKNTVYLQMNSLKPEDTAVYYCNADYDLYFSGWYDYWGQGTQVTVSS | low polyreactivity |
| QVQLVESGGGLVQAGGSLRLSCAASGRTFYDYAMGWYRQAPGKERELVASINSDGSTYYADSVKGRFTISLDNAKNTVYLQMNSLKPEDTAVYYCAADALLYSVYYRMYGYDYWGQGTQVTVSS | low polyreactivity |
